Where a chain is given by its changes, count along the chain named.
B1: 225 (protein)
chain: LDNGLARTPTMGWLHWERFMCNLDCQEEPDSCISEKLFMEMAELMVSEGWKDAGYEYLCIDDCWMAPQRDSEGRLQADPQRFPHGIRQLANYVHSKGLKLGIYADVGNKTCAGFPGSFGYYDIDAQTFADWGVDLLKFDGCYCDSLENLADGYKHMSLALNRTGSSIVYSCEWPLYMWPFQKPNYTEIRQYCNHWRNFADIDDSWASIKSILDWTSFNQERIVDVAGPGGWNDPDMLVIGNFGLSWNQQVTQMALWAIMAAPLFMSNDLRHISPQAKALLQDKDVIAINQDPLGKQGYQLRQGDNFEVWERPLSGLAWAVAMINRQEIGGPRSYTIAVASLGKGVACNPACFITQLLPVKRKLGFYEWTSRLRSHINPTGTVLLQLENSMQMSKDLLL
modifications: Synthetic Polypeptide sequence of Variant No. 182 of mature Human GLA
B2: 226 (protein)
chain: B1 chain with S165R, R221T, F365L, S389T
modifications: Synthetic Polypeptide sequence of Variant No. 226 of mature Human GLA
B3: 230 (protein)
chain: B1 chain with S165R, S374R, S389T
modifications: Synthetic Polypeptide sequence of Variant No. 230 of mature Human GLA
B4: 193 (protein)
chain: B1 chain with S165R, A206G, S389T
modifications: Synthetic Polypeptide sequence of Variant No. 193 of mature Human GLA
B5: 232 (protein)
chain: B1 chain with S165R, T369S, S389T
modifications: Synthetic Polypeptide sequence of Variant No. 232 of mature Human GLA
B6: 228 (protein)
chain: B1 chain with S165R, R373K, S389T
modifications: Synthetic Polypeptide sequence of Variant No. 228 of mature Human GLA
B7: 192 (protein)
chain: B1 chain with S165R, A206E, S389T
modifications: Synthetic Polypeptide sequence of Variant No. 192 of mature Human GLA
B8: 227 (protein)
chain: B1 chain with S165R, R325H, S389T
modifications: Synthetic Polypeptide sequence of Variant No. 227 of mature Human GLA
B9: 229 (protein)
chain: B1 chain with S165R, R373K, I376V, S389T
modifications: Synthetic Polypeptide sequence of Variant No. 229 of mature Human GLA
B10: 231 (protein)
chain: B1 chain with S165R, T369D, S389T
modifications: Synthetic Polypeptide sequence of Variant No. 231 of mature Human GLA
B11: 391 (protein)
chain: LDNGLARTPTMGWLHWERFMCNLDCQEEPDSCISEKLFMEMAERMVSEGWKDAGYEYLCIDDCWMAPQRDSEGRLQADPQRFPHGIRQLANYWHSKGLKLGIYADVGNKTCAGFPGSFGYYDIDAQTFADWGVDLLKFDGCYCDSLENLADGYKHMSLALNRTGRSIVYSCEWPLYMWPFQKPNYTEIRQYCNHWRNFADIDDSWKSIKSILDWTSRNQERIVDVAGPGGWNDPDMLVIGNFGLSWDQQVTQMALWAIMAAPLFMSNDLRHISPQAKALLQDKDVIAINQDPLGKQGYQLRKGDNFEVWERPLSGDAWAVAIINRQEIGGPRSYTIPVASLGKGVACNPACFITQLLPVKRQLGFYNWTSRLKSHINPTGTVLLQLENTMQMSLKDLL
modifications: Synthetic Polypeptide sequence of Variant No. 391 of mature Human GLA
B12: 393 (protein)
chain: B11 chain with W93G
modifications: Synthetic Polypeptide sequence of Variant No. 393 of mature Human GLA
B13: 392 (protein)
chain: B11 chain with W93T
modifications: Synthetic Polypeptide sequence of Variant No. 392 of mature Human GLA

Legend:
Assay type in all cases: biochemical
[1] = HTP-analysis of supernatants pretreated with acid (MUGal hydrolysis); details: for Relative Activity of GLA Variants After Challenge at pH 4.2: activity of the variant/activity of Rd2BB (SEQ ID NO: 10), yeast supernatant; for Relative Activity of GLA Variants After Challenge at pH 3.7: activity of the variant/activity of Rd4BB (SEQ ID NO: 15)
Summary of the method: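 Supernatants from INVSc1 yeast secreting GLA variants were challenged at 37° C. for 1-3 h in McIlvaine buffer at pH 3.3-4.3. Residual activity was then measured on 4 mM MUGal substrate stock at pH 4.8 with citrate buffer pH 4.3, over 30-180 min at 37° C. Reactions were quenched with sodium carbonate and read by fluorescence (Ex 355/Em 448 nm).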

[2] = HTP-analysis of supernatants pretreated with base (MUGal hydrolysis); details: for Relative Activity of GLA Variants After Challenge at pH 7.6: activity of the variant/activity of Rd2BB (SEQ ID NO: 10), yeast supernatant; for Relative Activity of GLA Variants After Challenge at pH 9.65: activity of the variant/activity of Rd4BB (SEQ ID NO: 15)
Summary of the method: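 Supernatants from INVSc1 yeast expressing GLA variants (SD-Ura, 66-84 h, 30° C) were mixed with McIlvaine buffer pH 7.0-8.2 or 200 mM sodium bicarbonate pH 9.1-9.7 and held 1-18 h at 37° C. Residual activity was then measured on MUGal at pH 4.8/4.3, 37° C, 30-180 min, by fluorescence (Ex 355/Em 448 nm).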

[3] = HTP-analysis of yeast culture supernatants, no challenge (MUGal hydrolysis)
Summary of the method: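 GLA variants were expressed in INVSc1 yeast grown in SD-Ura broth with glucose at 30° C., and culture supernatants were collected after 66-84 h. Supernatant was mixed with McIlvaine buffer pH 4.8 and MUGal (2 mM stock) in 50 mM citrate, 200 mM KCl, pH 4.6, incubated at 37° C. for 30-180 minutes, then quenched with sodium carbonate.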

[4] = activity of the variant/activity of Rd2BB (SEQ ID NO: 10), yeast supernatant
[5] = activity of the variant/activity of Rd4BB (SEQ ID NO: 15)

Row | Molecule | Relative Activity of GLA Variants After Challenge at pH 4.2 [1] | Relative Activity of GLA Variants After Challenge at pH 7.6 [2] | Relative Activity of GLA Variants After No Challenge (NC) [3, 4] | Relative Activity of GLA Variants After Challenge at pH 3.7 [1] | Relative Activity of GLA Variants After Challenge at pH 9.65 [2] | Relative Activity of GLA Variants After No Challenge (NC) [3, 5]
1 | B1 | + (+ = 0.5 to 1.5 relative activity over Rd2BB (SEQ ID NO: 10)) | + (+ = 0.5 to 1.5 relative activity over Rd2BB (SEQ ID NO: 10)) | + (+ = 0.5 to 1.5 relative activity over Rd2BB (SEQ ID NO: 10)) |  |  | 
2 | B2 | + (+ = 0.5 to 1.5 relative activity over Rd2BB (SEQ ID NO: 10)) | ++ (++ = 1.5 to 2.5 relative activity over Rd2BB (SEQ ID NO: 10)) | + (+ = 0.5 to 1.5 relative activity over Rd2BB (SEQ ID NO: 10)) |  |  | 
3 | B3 | − (− = <0.5 relative activity over Rd2BB (SEQ ID NO: 10)) | + (+ = 0.5 to 1.5 relative activity over Rd2BB (SEQ ID NO: 10)) | + (+ = 0.5 to 1.5 relative activity over Rd2BB (SEQ ID NO: 10)) |  |  | 
4 | B4 | + (+ = 0.5 to 1.5 relative activity over Rd2BB (SEQ ID NO: 10)) | + (+ = 0.5 to 1.5 relative activity over Rd2BB (SEQ ID NO: 10)) | + (+ = 0.5 to 1.5 relative activity over Rd2BB (SEQ ID NO: 10)) |  |  | 
5 | B5 | ++ (++ = 1.5 to 2.5 relative activity over Rd2BB (SEQ ID NO: 10)) | ++ (++ = 1.5 to 2.5 relative activity over Rd2BB (SEQ ID NO: 10)) | ++ (++ = 1.5 to 2.5 relative activity over Rd2BB (SEQ ID NO: 10)) |  |  | 
6 | B6 | + (+ = 0.5 to 1.5 relative activity over Rd2BB (SEQ ID NO: 10)) | + (+ = 0.5 to 1.5 relative activity over Rd2BB (SEQ ID NO: 10)) | + (+ = 0.5 to 1.5 relative activity over Rd2BB (SEQ ID NO: 10)) |  |  | 
7 | B7 | + (+ = 0.5 to 1.5 relative activity over Rd2BB (SEQ ID NO: 10)) | + (+ = 0.5 to 1.5 relative activity over Rd2BB (SEQ ID NO: 10)) | + (+ = 0.5 to 1.5 relative activity over Rd2BB (SEQ ID NO: 10)) |  |  | 
8 | B8 | − (− = <0.5 relative activity over Rd2BB (SEQ ID NO: 10)) | − (− = <0.5 relative activity over Rd2BB (SEQ ID NO: 10)) | − (− = <0.5 relative activity over Rd2BB (SEQ ID NO: 10)) |  |  | 
9 | B9 | − (− = <0.5 relative activity over Rd2BB (SEQ ID NO: 10)) | + (+ = 0.5 to 1.5 relative activity over Rd2BB (SEQ ID NO: 10)) | + (+ = 0.5 to 1.5 relative activity over Rd2BB (SEQ ID NO: 10)) |  |  | 
10 | B10 | ++ (++ = 1.5 to 2.5 relative activity over Rd2BB (SEQ ID NO: 10)) | ++ (++ = 1.5 to 2.5 relative activity over Rd2BB (SEQ ID NO: 10)) | ++ (++ = 1.5 to 2.5 relative activity over Rd2BB (SEQ ID NO: 10)) |  |  | 
11 | B11 |  |  |  | + (0.5 to 1.5 relative activity over Rd4BB (SEQ ID NO: 15)) | − (<0.5 relative activity over Rd4BB (SEQ ID NO: 15)) | + (0.5 to 1.5 relative activity over Rd4BB (SEQ ID NO: 15))
12 | B12 |  |  |  | − (<0.5 relative activity over Rd4BB (SEQ ID NO: 15)) | − (<0.5 relative activity over Rd4BB (SEQ ID NO: 15)) | + (0.5 to 1.5 relative activity over Rd4BB (SEQ ID NO: 15))
13 | B13 |  |  |  | + (0.5 to 1.5 relative activity over Rd4BB (SEQ ID NO: 15)) | − (<0.5 relative activity over Rd4BB (SEQ ID NO: 15)) | + (0.5 to 1.5 relative activity over Rd4BB (SEQ ID NO: 15))

Source: patent US11278600B2, “Human alpha-galactosidase variants” (Codexis, Inc., priority 2014, dated 2022)
